91 sequences from the supplement of paper PMC9112550, “Optimization of the antimicrobial peptide Bac7 by deep mutational scanning” (BMC Biology, 2022) can be followed below.

This series has as its system Escherichia coli TOP10. Nature of the series: shrunken log2 fold change of peptide-encoding DNA abundance (4.5 h post-induction vs induction); higher = less antimicrobial activity (less host growth inhibition). The settings on record: time post-induction: 4.5 h; library: site-saturation at positions 5, 18, 19, 20.
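Further: peptides expressed intracellularly from a pBAD plasmid library in pooled LB shake-flask culture, induced with 0.3% L-arabinose, DNA abundance read by NGS, three biological replicates, DESeq2 with apeglm shrinkage.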

Take RRIRGRPPRLPRPRPRPGHDPRP: the “shrunken log2 fold change” value turned out to be 0.0495.
Under RRIRWRPPRLPRPRPRPRNAPRP stands 0.0837.
Under RRIRARPPRLPRPRPRPDRVPRP stands -0.0545; under RRIRDRPPRLPRPRPRPFTEPRP, -0.165; under RRIRARPPRLPRPRPRPRMQPRP, 0.637.
Under RRIRMRPPRLPRPRPRPTRPPRP stands 1.32; under RRIRIRPPRLPRPRPRPWKIPRP, -0.0311.
For the sequence RRIRTRPPRLPRPRPRPHPVPRP, the “shrunken log2 fold change” value is 0.1.
Take RRIRFRPPRLPRPRPRPWNFPRP: the “shrunken log2 fold change” value is -0.0389.
Consider RRIRQRPPRLPRPRPRPPIGPRP, for which the “shrunken log2 fold change” value came out at 2.89.
Consider RRIRSRPPRLPRPRPRPDRNPRP, for which the “shrunken log2 fold change” value was -0.228.
Consider RRIRIRPPRLPRPRPRPLDMPRP, for which the “shrunken log2 fold change” value was -0.285.
Under RRIRKRPPRLPRPRPRPWSWPRP stands 0.00624.
Under RRIRDRPPRLPRPRPRPNEYPRP stands 0.0406; under RRIRPRPPRLPRPRPRPQMFPRP, 0.161.
With RRIRGRPPRLPRPRPRPTCPPRP, the “shrunken log2 fold change” value came out at 0.419.
RRIRNRPPRLPRPRPRPWLRPRP: the “shrunken log2 fold change” value was -0.0603.
Under RRIRMRPPRLPRPRPRPGICPRP stands 0.507.
Under RRIRERPPRLPRPRPRPYLDPRP stands -0.149; under RRIRERPPRLPRPRPRPTWGPRP, -0.0539.
On to RRIRTRPPRLPRPRPRPPESPRP, for which the “shrunken log2 fold change” value was -0.0298.
Under RRIRWRPPRLPRPRPRPQVTPRP stands -0.0309; under RRIRERPPRLPRPRPRPPIRPRP, -0.0192; under RRIRCRPPRLPRPRPRPIWQPRP, 0.102.
Under RRIRCRPPRLPRPRPRPRALPRP stands 0.113.
Under RRIRIRPPRLPRPRPRPRAHPRP stands -0.201; under RRIRPRPPRLPRPRPRPHQRPRP, -0.232; under RRIRERPPRLPRPRPRPKLSPRP, -0.173.
As to RRIRTRPPRLPRPRPRPQKKPRP, the “shrunken log2 fold change” value turned out to be 0.0215.
On to RRIRKRPPRLPRPRPRPSNSPRP, for which the “shrunken log2 fold change” value amounted to 0.13.
Under RRIRYRPPRLPRPRPRPEKLPRP stands -0.034; under RRIRWRPPRLPRPRPRPRPSPRP, 0.766; under RRIRMRPPRLPRPRPRPAYVPRP, -0.114.
Under RRIRLRPPRLPRPRPRPVAKPRP stands 0.123; under RRIRPRPPRLPRPRPRPMSPPRP, -0.194.
On to RRIRQRPPRLPRPRPRPQKSPRP, for which the “shrunken log2 fold change” value was found to be 0.0118.
Under RRIRFRPPRLPRPRPRPYWLPRP stands -0.234; under RRIRCRPPRLPRPRPRPAREPRP, 0.0467.
Under RRIRTRPPRLPRPRPRPTCRPRP stands -0.0601; under RRIRIRPPRLPRPRPRPHCWPRP, -0.27.
With RRIRQRPPRLPRPRPRPNRKPRP, the “shrunken log2 fold change” value is -0.141.
Turning to RRIRIRPPRLPRPRPRPCFQPRP, the “shrunken log2 fold change” value is -0.391.
As to RRIRWRPPRLPRPRPRPKANPRP, the “shrunken log2 fold change” value turned out to be 0.51.
Under RRIRSRPPRLPRPRPRPNGNPRP stands -0.384.
Consider RRIRQRPPRLPRPRPRPGGMPRP, for which the “shrunken log2 fold change” value was determined as 0.2.
Under RRIRVRPPRLPRPRPRPRHAPRP stands 0.229; under RRIRTRPPRLPRPRPRPWPGPRP, 0.0416.
Under RRIRSRPPRLPRPRPRPPQLPRP stands 0.209.
Regarding RRIRLRPPRLPRPRPRPSAAPRP, the “shrunken log2 fold change” value stood at 0.419.
With RRIRTRPPRLPRPRPRPCDQPRP, the “shrunken log2 fold change” value is -0.252.
As to RRIRHRPPRLPRPRPRPMHMPRP, the “shrunken log2 fold change” value is -0.0761.
Under RRIRARPPRLPRPRPRPHRVPRP stands -0.13.
Under RRIRSRPPRLPRPRPRPPWCPRP stands 0.309; under RRIRHRPPRLPRPRPRPNCNPRP, -0.589; under RRIRKRPPRLPRPRPRPRNMPRP, -0.162.
For RRIRSRPPRLPRPRPRPWCLPRP, the “shrunken log2 fold change” value is -0.11.
Under RRIRFRPPRLPRPRPRPYHTPRP stands -0.0117; under RRIRQRPPRLPRPRPRPKGDPRP, 0.00911.
Under RRIRMRPPRLPRPRPRPVHNPRP stands -0.0275; under RRIRWRPPRLPRPRPRPPPDPRP, 0.906.
RRIRHRPPRLPRPRPRPDQNPRP: the “shrunken log2 fold change” value is -0.14.
In the case of RRIRQRPPRLPRPRPRPVSSPRP, the “shrunken log2 fold change” value is -0.255.
Under RRIRNRPPRLPRPRPRPYTVPRP stands 0.0303.
On to RRIRARPPRLPRPRPRPMQMPRP, for which the “shrunken log2 fold change” value turned out to be 0.626.
RRIRIRPPRLPRPRPRPIIPPRP: the “shrunken log2 fold change” value was -0.072.
Under RRIRWRPPRLPRPRPRPIRYPRP stands -0.242.
With RRIRNRPPRLPRPRPRPCAIPRP, the “shrunken log2 fold change” value was -0.0115.
In the case of RRIRLRPPRLPRPRPRPPFRPRP, the “shrunken log2 fold change” value was 0.526.
For RRIRPRPPRLPRPRPRPAWFPRP, the “shrunken log2 fold change” value stood at 0.117.
Under RRIRGRPPRLPRPRPRPSDCPRP stands 0.105; under RRIRRRPPRLPRPRPRPTHMPRP, 0.577; under RRIRNRPPRLPRPRPRPWPWPRP, 0.0162.
Under RRIRPRPPRLPRPRPRPERTPRP stands 0.291; under RRIRKRPPRLPRPRPRPHGWPRP, 0.865.
Turning to RRIRKRPPRLPRPRPRPVFIPRP, the “shrunken log2 fold change” value is -0.0138.
With RRIRQRPPRLPRPRPRPSNSPRP, the “shrunken log2 fold change” value is -0.294.
Under RRIRARPPRLPRPRPRPKAWPRP stands 0.146.
Turning to RRIRFRPPRLPRPRPRPWGIPRP, the “shrunken log2 fold change” value was -0.0116.
Under RRIRTRPPRLPRPRPRPQRPPRP stands 0.158; under RRIRVRPPRLPRPRPRPTTNPRP, 0.0416.
Under RRIRFRPPRLPRPRPRPWRAPRP stands 0.0757.
Consider RRIRNRPPRLPRPRPRPILPPRP, for which the “shrunken log2 fold change” value was -0.297.
Under RRIRWRPPRLPRPRPRPELDPRP stands 1.82; under RRIRVRPPRLPRPRPRPMWPPRP, 0.0245; under RRIRFRPPRLPRPRPRPPPVPRP, 1.43.
Under RRIRNRPPRLPRPRPRPSENPRP stands -0.296; under RRIRLRPPRLPRPRPRPYYLPRP, -0.477.
In the case of RRIRCRPPRLPRPRPRPFQDPRP, the “shrunken log2 fold change” value is -0.169.
Under RRIRFRPPRLPRPRPRPCGKPRP stands -0.018; under RRIRYRPPRLPRPRPRPQQKPRP, 0.0376.
As to RRIRERPPRLPRPRPRPPDYPRP, the “shrunken log2 fold change” value is -0.202.
